# Measurements reported in the DeepSol protein solubility set.
# Test: soluble on expression in E. coli; label from the status in PepcDB or PDB records
row,Sequence,soluble on expression in E. coli
1,MSLELRPLHPLDGLLKFAGLARSTFYYQQKVLLVDDKYAGLKDLIQATFYEHKGRYGYRRITAALRRAGHLVNHKTVQKLMGQLGLKSLIRVKKYRSYKGETGKAAPNLLKRDFKAQYLNQKWATDVTEFKVGGQKLYLSPIMDLYSGEIISYAIARRPLYSMVDEMLEGAFKRLGPHEKPILHSDQGWQYRMPIYQRLLNENSIAASMSRKGNCYDNAAIESFFSTLKSEFFYLNKFNDLDELQAGIEEYIEYYNHSRIKLKLNGLSPVEYRMQAAKAAEGHHHHHH,not soluble
2,MTAFRQRPLRLGHRGAPLKAKENTLESFRLALEAGLDGVELDVWPTRDGVFAVRHDPDTPLGPVFQVDYADLKAQEPDLPRLEEVLALKEAFPQAVFNVELKSFPGLGEEAARRLAALLRGREGVWVSSFDPLALLALRKAAPGLPLGFLMAEDHSALLPCLGVEAVHPHHALVTEEAVAGWRKRGLFVVAWTVNEEGEARRLLALGLDGLIGDRPEVLLPLGG,soluble
3,SLMKQIKHFNQNYQELRQLGKVAIGRRAGKLKAGTIILFAVDSQGKILAARKMQGVTVLAKFHPLPQYVNEDIHYMDHYHPLVQKENKLTQQAMENAREIYLRVELGNYQETQPLTPLNGAKIQWQLWKNKVQTKLKGSVE,soluble
4,GPGSMTYRYDYRPPNGGVEGSTVLFEPVAREHRATFSCGGGYGRNVMPEIPRPMVLPLVDYLDSFDKRFIEDWDEITTVQMVKLATLLNYEELLNLASAKLAVYLSEKSIEGLRAFLGVENDFKAEEEAELRKEYGRMSEEK,soluble
5,MGSDKIHHHHHHQNTPIGENIELAGENPEELKVIYINKDVSTHFIAMEDIKYVDISVNDIVGDIPTGNSLRIKPTKEGASGVITIVTERFFVQYMLVYSSDLAKAYTRFNIPYADLRSYMNPEVNLTKAQMYDYAHRMFISKNKFYDVSSTSNLMKIVLNNIYTLDKYFFIDISMINKTKIRYDIDQIRFKIEDKKQTKATNFQSIEILPLMQVNKNLVFKKNYRNIFVFEKFTFPDEKVLTIEISEKQISGRTITLRIDYADILHADAFTE,not soluble
6,MMVYPVKHSPLLRQPEHFIARDELKALVQKVTHNLVNIKDETGEFLLRLDDGRVIDTKGWAGWEWTHGVGLYGMYHYYQQTGDQTMRKIIDDWFADRFAEGATTKNVNTMAPFLTLAYRYEETRNPAYLPWLETWAEWAMNEMPRTDHGGMQHITLAEENHQQMWDDTLMMTVLPLAKIGKLLNRPEYVEEATYQFLLHVQNLMDKETGLWFHGWSYDGHHNFANARWARGNSWLTIVIPDFLELLDLPENNAVRRYLVQVLNAQIAALAKCQDESGLWHTLLDDPHSYLEASATAGFAYGILKAVRKRYVERHYAQVAEKAIRGIVKHISPEGELLQTSFGTGMGHDLDFYRHIPLTSMPYGQAMAMLCLTEYLRNYF,not soluble
7,NTEEKFVRAEEKAKRSKMLIDMKSEQYNMITEKIEKTRKSRHDIHHHINVVYQLAKENKIEQLIEYLEEYNKIYSTKEPMVYCNNSTVDAILNHYILLAKDNGIEVHLNVALPEELKIRDTDLCIVIGNLLENAIEASEKEENKRIKLRINRSNEYICMLVSNLYNGEIKKGHSGYYSRKREFKDTGIGLSSVSAVVEKYDGRMEVDHTNGEFNVFIMMANISSNLT,not soluble
8,MGRKKRLKVERKAVAENQSQILTMVTISETEMEKEKTYTALQKLKSVSNDLFEECQRVFANTSFCTAELENIVGCFDRYEKEISTIPDEYRTHPCVIKFQNCIRALCNVVAKKLNNTTRDVETQTNFQSPRITWRQRYWMPYLNK,not soluble
9,MKHIIILGDGMADWPVKSLGDKTLLQYAKTPYMDKLARMGRNGRLITVAEGFHPGSEVANMSVLGYNLPKVYEGRGPLEAASIGVDLKPGEMAMRCNLICVEGEILKNHSSGHISTEEADVLIQYLQEKLGNDRVRFHTGVQYRHLLVIKGGNKELDCTPPHDVPLKPFRPLMVKPLVPEAQETADLINDLILKSQELLKNHPLNLKRMSEGKDPANSIWPWSPGYRPQMPAFSETFPQVKKGAVISAVDLINGIGYYAGLRRIAVEGATGLYNTNYENKVAAALEALKTDDFVYLHIEASDEAGHEGDIDLKLLTIENLDKRAVGPIYEAVKDWDEPVAIAVLPDHPTPCELRTHTSDPIPFLIWYPGIEPDEVQTYDEISACDGSYGVLKEDEFIKEFMNQKNIQ,not soluble
10,MSKLQGKKITPMPISAGITVVDLINEYFTAYNSARLREACKLLSQDIFQAGVTVGVSLSGAMTPAGFGVSALAPLIRHGFIDWMISTGANLYHDVHYALGFELFAGSPFLDDVKLREEGTIRIYDIIFGYDVLLETDAFIRKVLQAEPFQKRMGTAEFHYLLGKYVREVEKQLGVQHSCLLATAYEYGVPIYTSSPGDSSIGMNVAALALEGSRLVLDPAIDVNETSAIAYGARETDGKSAAVILGGGSPKNFLLQTQPQIHEVLGLEERGHNFFVQFTDARPDTGGLSGATPAEAVSWGKIDPDELPSTIVCYTDSTIAIPLVTAYVLNQCQARPVKRLYDRREALLETLQKDYLAAKDKPVVKEEGTEEVPSYRCGTPIKR,not soluble
11,MLYPNERKSSVHAIPYQDQLKQVQSAVDEFQKANGGLLPIQTKDMSTPLYQKYPIDFNRLAPRYIAEPPSTAFESGGDYQYVLVDVENDPTVKLIDLKMAEKIRDVKLRIQMYRQEHQYPPYKDVLSRDLFTLDEKKLGDGSSLTVTSPISGNSLPLMIDGDGEIYADYRTELASCLKKSKKTFKPGTEIQDMIWHETPFVPAFSVKYTVNDKQEPVFLENDMKKELEHHHHHH,soluble
12,MGSDKIHHHHHHMKIHQLRALVAVTTAGSIKAAARTMHVTQPAISKAIQELENEFGVPLLERKPWGVVPTPEGDALLGRAQAVVRELERANEDMAHMKGLRDGRLVIGFTPIVAVTGFAEAYAAFRRHWPNVECELRELTFNLLTEQLRNRTLDLAFVAVTGPLSESVDIKAIRTFDTAFVTRENGRFAGATSLDALRDAEWIHADASDSFPTYIRDLHAHAGLPPPRCITRCTSYALFYSLLMTNDAIFSWTRLSLAETVFGQKLTPLPLPMSPPPLQLYRLTPPGLQLTRPASDFLAHVETAFASNQLTGDVQR,not soluble
13,MKGYFETNRIQHIIVDEAQNFHTEDGNWCEKAKGITQGGKACPRMFWIFLDYFQTSHLKESGLPDFELQYPKEELTQVVRNGDKIAEFLQQELGKIRDNPPCSIPRASLNIVHEFKWSQSISGTLKIKYLTSEKMVSYVANKCDVFLSKGYSPQDIAVLFSTDREKKAYEHMFLREMRKKRRASQMNDTSVCHSNMFDRIRRFSGLERSIVFGINPIATEQPISHNLLICLASRAMKYLYILYALTPEGQSSTVAC,not soluble
14,MKDSLQTIGVFVRPTHYQNPLFEKLEQAKEWVLKLLEDEGFESFMIDSLDGAKDARLIEKADAFLCLGGDGTILGALRMTHSYNKPCFGVRIGNLGFLSAVELNGLKDFLQDFKQDRIKLEEHLALEGRIGKTSFYAINEIVIAKKKALGVLDIKAYAGHTPFNTYKGDGLIIATPLGSTAYNLSAHGPIVHALSQSYILTPLCDFSLTQRPLVLGAEFCLNFCAHEDALVVIDGQATYDLKANQPLYIQKSPTTTKLLQKNSRDYFKVLKEKLLWGESPSKKRLEHHHHHH,soluble
15,MICSLFVDKVNKETYLCAMKQEYISRIRSFNRYYTKILGILNKYYLGSELGLPEVRIIQDVYLHPDRSSKDISNELNMDKGLLSRLLKQLEQKEYIFRKSTEKDNRMGLVNLTEKGCEVYYRLNTAANQSIERIFSHLEDRQLQRLVHCMDSIYKIINSVETGLTVDNNEPIVIRPIEESDNASIASVLRASVEEHGAPKVGTFYDDPHTDRMFQTFNIKGAEYWIVESNGVILGGGGFYPTKGLPHGYAELSKFHFRPELRGRGIGKRLLQFIEQRAVSAGYVYMYIVSYHQFGNAVSMYEKYGYEHIDNALDQSGLYQDAPFHMVKAL,not soluble
16,MTDIIIVHSKHGNSKNHWYEWLRHNLTLEGYDVSLFNLEANDHAQIDEWVNEMKQQLHIRKKDTYFVTHGFGSIAALKFLEETHHHIEGFFSIAGFKEDAQDIDEDVDLKGVTIDYDKIKEQVDKFYGLTSKDDQYVSYKETQRLMNSLNGHTRVVEDGGHFLEEEGFVTFTSLINRMQGYMTRLEHHHHHH,not soluble
17,MRYFINIYVFRIKKILVLSVVNHISMDNPFSKFTNSRTIQADLSLLEENYIPDSFPHREKQINDMVTILSSIMRNSRPSNIIVYGKTGTGKTSTTKYVTRMLQEATSNVEVIYVNCEIYDSPYSILVYVANFAGGEKIPELGWPVDRIYREAVDRINGTGKFFVIVLDEMDRLIKKSGGDSLYVLLKLMTDVENVKVSMIGITNDTTLLENLDSRIKSRLNQESIVFPPYNATEIRDIIASRLEKVFGPGVVDDTAINLCAAIGAQEHGDARKAIDLMRIAIEIAIRENRLKVTEKEVYEARDKYEMNVMHEAINTLPIHSKIVLLSAIVTQEIEPNSVITGEIYENYRRICEDLGFTPLTPRRISDLLTELSDYGLIVVDERNMGKYGRTRGFSVVKEIETIKKYLMEDENLSMFKTSKMTKQARFDS,not soluble
18,MAADGTYDELERGEKSKLRDDVVDIQKKPFSILFMGVEDYSTNGEHGRTDSLIVVTLDPKKKSMKMLSIPRDTRVHLASDTTGTKTKINAAYAKGGKDETIETVEDFLGIPIDYYATVDFDGFKDVIDEIGGIDVDVPFDFSEKSDVSKSKRIYFKKGNMHLNGEEALAYARMRKQDKRGDFGRNDRQKQILKAALDQISKPQNLAKIDTIAQKASKNIQTNFRITQALALQQIYSGFAGDDIKTLNITGQDLTIANVYYFEPDQQNLENVQNELTHHLYPLEHHHHHH,soluble
19,MLKGILYIIGIYQRYLSPLKGPTCRFYPSCSRYAHESLTRYGLVKGLWLTTIRILKCHPFHPGGVDPVKLEHHHHHH,not soluble
20,MLCSRYFTSSLFLWGEALPTLLEEFLNEVEKMLKNQVNTRRIHQLLKELDDPLLENKDLEEKLQAFLDYVKEIPNLPEARKRYRIQKSLEMIEKLRSWFLIDYLECSGEEVDLSTDIQYAKGVGPNRKKKLKKLGIETLRDLLEFFPRDYEDRRKIFKLNDLLPGEKVTTQGKIVSVETKKFQNMNILTAVLSDGLVHVPLKWFNQDYLQTYLKQLTGKEVFVTGTVKSNAYTGQYEIHNAEVTPKEGEYVRRILPIYRLTSGISQKQMRKIFEENIPSLCCSLKETLPERILEKRKLLGVKDAYYGMHFPKTFYHLEKARERLAYEELFVLQLAFQKIRKEREKHGGIPKKIEGKLAEEFIKSLPFKLTNAQKRAHQEIRNDMISEKPMNRLLQGDVGSGKTVVAQLAILDNYEAGFQTAFMVPTSILAIQHYRRTVESFSKFNIHVALLIGATTPSEKEKIKSGLRNGQIDVVIGTHALIQEDVHFKNLGLVIIDEQHRFGVKQREALMNKGKMVDTLVMSATPIPRSMALAFYGDLDVTVIDEMPPGRKEVQTMLVPMDRVNEVYEFVRQEVMRGGQAFIVYPLIEESDKLNVKSAVEMYEYLSKEVFPEFKLGLMHGRLSQEEKDRVMLEFAEGRYDILVSTTVIEVGIDVPRANVMVIENPERFGLAQLHQLRGRVGRGGQEAYCFLVVGDVGEEAMERLRFFTLNTDGFKIAEYDLKTRGPGEFFGVKQHGLSGFKVADLYRDLKLLEWAREDVQEIDVEGIELPEEIKLIEVG,soluble
